Experimental data published in patent publication US20130303726.

System: MBP-SpC33Leu fusion protein

enterokinase
cleavage of the fusion protein, MALDI-MS: No detectable amounts of MBP-linker-SP-C33(Leu) were observed, suggesting that the applied proteolytic reaction conditions result in a quantitative process
